{"source": "patent US20260258121A1", "about": "“USES OF POMC-SPECIFIC ANTIBODY AND MARCHF6” (KOREA UNIVERSITY RESEARCH AND BUSINESS FOUNDATION, priority 2023, published 2026)", "molecules": {"B1": {"name": "Marchf63f^P460A: POMC-inaccessible Marchf6 mutant with Pro460-to-Ala mutation in the POMC-interacting region (pCH4170) (protein, UniProt Q6ZQ89 1-909, looked up, variant P460A)", "E3 ubiquitin-protein ligase …": "MDTAEEDICRVCRSEGTPEKPLYHPCVCTGSIKFIHQECLVQWLKHSRKEYCELCKHRFAFTPIYSPDMPSRLPIQDIFAGLVTSIGTAIRYWFHYTLVAFAWLGVVPLTACRIYKCLFTGSVSSLLTLPLDMLSTENLLADCLQGCFVVTCTLCAFISLVWLREQIVHGGAPIWLEHAAPPFNAAGHHQNEAPVGGNGAENPAADQPANPAGENAVLGENPDAQDGQAEEEEEDNEEEDDAGVEDAADANNGAQDDMNWNALEWDRAAEELTWERMLGLDGSLVFLEHVFWVVSLNTLFILVFAFCPYHIGHFSLVGLGFEEHVQASHFEGLITTIVGYILLAITLIICHALATLVKFHRSRRLLGVCYIVVKVSLLVVVEIGVFPLICGWWLDICSLEMFDATLKDRELSFQSAPGTTMFLHWLVGMVYVFYFASFILLLREVLRPGVLWFLRNLNDADFNPVQEMIHLPIYRHLRRFILSVIVFGSIVLLMLWLPIRIIKSLLPNFLPYNVMLYSDAPVSELSLELLLLQVVLPALLEQGHTRQWLKGLVRAWTVTAGYLLDLHSYLLGDQEENENSANQQVNNNQPARNNNAVPAGEGLHAAHQAILQQGGPVGFQPYRRPLNFPLRIFLLIVFMCITLLIASLICLTLPVFAGRWLMSFWTGTAKIHELYTAACGLYVCWLTIRAVTVLVAWMPQGRRVIFQKVKEWSLMIMKTLIVAVLLAGVVPLLLGLLFELVIVAPLRVPLDQTPLFYPWQDWALGVLHAKIIAAITLMGPQWWLKTVIEQVYANGIRNIDLHYIIRKLAAPVISVLLLSLCVPYVIASGAVPLLGVTAEMQNLVHRRIYPFLLMVVVLMGILSFQVRQFKRLYEHIKNDKYLVGQRLVNYERKSGKQGPSTPPPVSSQE", "modifications": "C-terminal triple FLAG tag"}, "B2": {"name": "Marchf63f^C9A: catalytically inactive Marchf6 mutant (pCH880) (protein, UniProt Q6ZQ89 1-909, looked up, variant C9A)", "E3 ubiquitin-protein ligase …": "B1 E3 ubiquitin-protein ligase … with C9A, A460P", "modifications": "C-terminal triple FLAG tag"}}, "key": {"Gpx4": {"system": "Gpx4", "experiment": "Immunoblotting of Gpx4 in POMCha^Δ1-26-expressing N43/5 cells treated with degradation inhibitors", "assay_type": "cell-based, mouse", "conditions": "8 hours", "experimental": "To determine whether full-length POMCha or cytosolic POMCha^[…] regulated the expression of Gpx4 protein, which was known to be degraded by ferroptosis induction, the mRNA level of Gpx4 was analyzed by qRT-PCR in […]/5 cells overexpressing full-length POMCha or cytosolic POMCha^[…], and subjected to CHX-chase assay. In addition, since Gpx4 degradation occurred through chaperone-mediated autophagy (CMA), macroautophagy, or the Ub-proteasome system, […]/5 cells overexpressing POMCha^[…] were treated with a lysosomal inhibitor such as chloroquine (CQ) or BafA1 (bafilomycin A1), a proteasome inhibitor MG132, or a macroautophagy inhibitor 3-MA (3-methyladenine), and the expression of Gpx4 protein was analyzed by immunoblotting. In addition, the expression of lysosome-associated protein 2A (Lamp2a), heat shock chaperones Hsc70 and Hsp90 was confirmed by immunoblotting in […]/5 cells overexpressing POMCha^[…], and changes in Gpx4 were analyzed by treatment with Lamp2a-specific siRNA (SCBT, sc-35791)."}, "[1]": {"system": "POMCha-overexpressing Marchf6-KO N43/5 cells", "experiment": "Cell viability (CellTiter-Glo) of POMCha-overexpressing Marchf6-KO N43/5 cells", "assay_type": "cell-based, mouse", "conditions": "for reduced viability of POMCha-overexpressing Marchf6-deficient N43/5 cells, effect of ectopic expression: ectopic expression by transfection", "experimental": "To understand the functional or mechanistic association between Marchf6-mediated POMC degradation and ferroptosis, lipid ROS levels were compared in N43/5 cells overexpressing POMCha using a lipid peroxidation sensor C11-BODIPY^581/591. Specifically, WT or Marchf6-KO N43/5 cells were transfected with pCH4129 (POMCha) for 48 hours, and the medium was replaced with a culture medium containing 2 μM C11-BODIPY^581/591 (Thermo Fisher Scientific, D3861). The cells were incubated at 37° C. for 30 minutes, and the fluorescent probe-treated cells were trypsinized, transferred to a 15 ml Falcon tube, washed three times with 1 ml of ice-cold PBS, and then transferred to an ice-cold round-bottom polystyrene tube (Corning, 352235). The amount of intracellular lipid ROS in […] was measured using CytoFLEX LX (Beckman Coulter) using fluorescein isothiocyanate (FITC) and analyzed using FlowJo v10.8.1 (BD Bioscience). In addition, cell viability was analyzed using a CellTiter-Glo luminescent 3D cell viability assay kit (Promega, G9241) and a multimode plate reader (TECAN, Spark 10 M). At this time, when the inhibition of cell death was evaluated, WT or Marchf6-KO N43/5 cells expressing pCH60 (empty vector) or pCH4129 (POMCha) (final concentration of […] each) were treated with 5 μM Fer-1, 20 μM Z-VAD-FMK or 40 μM Nec-1, and incubated for 24 hours, and cell viability was analyzed. In addition, the intracellular NADP(H) level was measured using a NADP/NADPH-Glo assay kit (Promega, G9081) and a multimode plate reader (TECAN, Spark 10 M). Further, LDH activity was measured using the Cytotoxicity Detection Kit Plus (LDH) (Sigma, 4744926001).\nThrough Examples, since Marchf6 mediated the degradation of POMC, it was expected that loss of Marchf6 would make POMC neurons hypersensitive to POMC-induced ferroptosis. Therefore, pCH60 (empty vector), pCH879 (Marchf63f), pCH880 (Marchf6flag^C9A), or pCH4170 (Marchf6flag^P460A) was transfected into WT or Marchf6-KO N43/5 cells, and the degree of ferroptosis induction in POMC neurons was analyzed as in Example 6-1."}, "POMC": {"target": "T1, POMC (Homo sapiens, UniProt P01189)", "T1 construct": "expressed in transfected cells; host or cells: HEK293T", "T1 sequence (P01189 1-267)": "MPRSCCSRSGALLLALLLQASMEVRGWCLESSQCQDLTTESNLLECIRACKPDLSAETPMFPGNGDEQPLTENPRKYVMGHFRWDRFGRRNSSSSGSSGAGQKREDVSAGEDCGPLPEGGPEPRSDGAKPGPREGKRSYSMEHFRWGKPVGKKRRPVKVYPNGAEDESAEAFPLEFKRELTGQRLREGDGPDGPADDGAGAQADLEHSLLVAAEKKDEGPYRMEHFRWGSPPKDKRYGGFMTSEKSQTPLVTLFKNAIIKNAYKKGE", "experiment": "Chemical crosslinking-based reciprocal co-immunoprecipitation assay in HEK293T cells", "assay_type": "binding", "conditions": "DSP crosslinking", "experimental": "For the chemical crosslinking-based reciprocal co-immunoprecipitation assay, HEK293T cells were incubated at […] in a 10-cm dish plate and co-transfected with […] of pCH60 (empty vector) or pCH4129 (exogenous C-terminally hemagglutinin (ha)-tagged POMC: POMCha) and pCH879 (wild-type C-terminal triple flag-tagged Marchf6: Marchf63f) or pCH4170 (Marchf6^P460A) and incubated for 48 hours. The cells were washed with PBS, treated with 1 mM DSP [dithiobis(succinimidyl propionate)] (Thermo Fisher, 22585), and then the crosslinked cells were lysed and immunoprecipitated. The beads were washed three times with an IP-wash buffer (20 mM Tris-HCl, 137 mM NaCl, 0.1% NP-40, 2 mM EDTA, 10% glycerol) and bound proteins were eluted with a 2× SDS sample buffer. For immunoprecipitation with FLAG-agarose (Sigma-Aldrich, A2220), a 3× FLAG peptide (Protein Ark, GEN-3XFLAG-5) was used. Thereafter, the eluate was denatured and heated at 37° C. for 20 minutes, and SDS-PAGE and immunoblotting were performed using the corresponding antibody."}, "[2]": {"system": "Gpx4, CHOP, Nox2, and Nox4", "experiment": "Immunoblotting of Gpx4, CHOP, Nox2 and Nox4 in POMCha-overexpressing Marchf6-KO N43/5 cells", "assay_type": "cell-based, mouse"}}, "note": "Where a chain is given by its changes, count along the chain named. Numbers in names are those of the source. Where a SMILES comes first, the peptide text is derived from it. The star is where a group is joined. Cbz = O=C(OCc1ccccc1)*; CH2F = FC*"}
{"molecule": "CO/C1=C\\C(C)=C\\[C@@H](C)[C@@H](O)[C@@H](C)C/C(C)=C/C=C/[C@H](OC)[C@@H]([C@@H](C)[C@@H](O)[C@H](C)[C@@]2(O)C[C@@H](O)[C@H](C)[C@@H](C(C)C)O2)OC1=O", "note": "[BafA1, bafilomycin A1]", "values": [{"measurement": "Gpx4 downregulation in POMCha^Δ1-26-expressing N43/5 cells, effect of treatment", "setting": "Gpx4; BafA1 100 nM", "result": "restored"}]}
{"molecule": "CCN(CC)CCCC(C)Nc1ccnc2cc(Cl)ccc12", "note": "(stereo not drawn) [CQ, chloroquine]", "values": [{"measurement": "Gpx4 downregulation in POMCha^Δ1-26-expressing N43/5 cells, effect of treatment", "setting": "Gpx4; CQ 50 μM", "result": "restored"}]}
{"molecule": "CN1C(=O)C(Cc2c[nH]c3ccccc23)NC1=S", "note": "(stereo not drawn) [Nec-1, necrostatin-1, reference compound]", "values": [{"measurement": "decreased viability of POMCha-overexpressing Marchf6-KO N43/5 cells, effect of treatment", "setting": "[1]; 40 μM Nec-1, 24 hours", "result": "not restored"}]}
{"molecule": "COC(=O)C[C@H](NC(=O)[C@H](C)NC(=O)[C@@H](NC(=O)OCc1ccccc1)C(C)C)C(=O)CF", "note": "[Z-VAD, Z-VAD-FMK, reference compound] (Cbz-Val-Ala-Asp(OMe)-CH2F)", "values": [{"measurement": "decreased viability of POMCha-overexpressing Marchf6-KO N43/5 cells, effect of treatment", "setting": "[1]; 20 μM Z-VAD-FMK, 24 hours", "result": "not restored"}]}
{"molecule": "B1", "values": [{"measurement": "reduced viability of POMCha-overexpressing Marchf6-deficient N43/5 cells, effect of ectopic expression", "setting": "[1]", "result": "not restored"}, {"measurement": "binding of full-length POMC (co-immunoprecipitation)", "setting": "POMC", "result": "did not bind"}, {"measurement": "expression levels of Gpx4, CHOP, Nox2, and Nox4 proteins, effect of expression of construct", "setting": "[2]", "result": "not restored"}]}
{"molecule": "B2", "values": [{"measurement": "reduced viability of POMCha-overexpressing Marchf6-deficient N43/5 cells, effect of ectopic expression", "setting": "[1]", "result": "not restored"}, {"measurement": "expression levels of Gpx4, CHOP, Nox2, and Nox4 proteins, effect of expression of construct", "setting": "[2]", "result": "not restored"}]}
